According to patent US20050064507:

Legend:
[1] = molecular target: T1, ADD2 peptide KKKFRTPSFLKKSKK (SEQ ID NO:95) (not fully specified)
T1 chain: KKKFRTPSFLKKSKK

[2] = molecular target: T2, ARHGAP4 peptide AGPLRKSSLKKGGRL (SEQ ID NO:98) (not fully specified)
T2 chain: AGPLRKSSLKKGGRL

[3] = molecular target: T3, CREB1 peptide EILSRRPSYRKILND (SEQ ID NO:106) (not fully specified)
T3 chain: EILSRRPSYRKILND

[4] = molecular target: T4, DGKI peptide NRKKKRTSFKRKA (SEQ ID NO:79) (not fully specified)
T4 chain: NRKKKRTSFKRKA

[5] = molecular target: T5, ERN1 peptide ISDFGLAKKLAVGRHSFSRR (SEQ ID NO:145) (not fully specified)
T5 chain: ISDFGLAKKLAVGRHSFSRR

[6] = molecular target: T6, LIMK-2 peptide LRRRSLRRSNSISKSPGP (SEQ ID NO:121) (not fully specified)
T6 chain: LRRRSLRRSNSISKSPGP

[7] = molecular target: T7, LIMK2 peptide KATTKKRTLRKNDRK (SEQ ID NO:108) (not fully specified)
T7 chain: KATTKKRTLRKNDRK

[8] = molecular target: T8, … peptide KKPFKLSGLSFKRNRKE (SEQ ID NO:88) (not fully specified)
T8 chain: KKPFKLSGLSFKRNRKE

[9] = molecular target: T9, MAP3K14 peptide WKGKRRSKARKKRK (SEQ ID NO:100) (not fully specified)
T9 chain: WKGKRRSKARKKRK

[10] = molecular target: T10, MARCKS peptide KKKKKRFSFKKSFKL (SEQ ID NO:80) (not fully specified)
T10 chain: KKKKKRFSFKKSFKL

[11] = molecular target: T11, MARCKS peptide PSPSNETPKKKKKRFSFKKS (SEQ ID NO:157) (not fully specified)
T11 chain: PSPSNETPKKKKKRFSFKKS

[12] = molecular target: T12, MLK3 peptide HVRRRRGTFKRSKLRARD (SEQ ID NO:76) (not fully specified)
T12 chain: HVRRRRGTFKRSKLRARD

[13] = molecular target: T13, MacMARCKS peptide KKKFSFKKPFKLSGLSFKRN (SEQ ID NO:162) (not fully specified)
T13 chain: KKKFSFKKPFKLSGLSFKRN

[14] = molecular target: T14, Myt1 kinase peptide PPRTPGWHQLQPRRVSFRGE (SEQ ID NO:163) (not fully specified)
T14 chain: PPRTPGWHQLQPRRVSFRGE

[15] = molecular target: T15, NIK peptide WKGKRRSKARKKRK (SEQ ID NO:131) (not fully specified)
T15 chain: WKGKRRSKARKKRK

[16] = molecular target: T16, PLD1 peptide KYKAFIRIPIPTRRHTFRRQ (SEQ ID NO:161) (not fully specified)
T16 chain: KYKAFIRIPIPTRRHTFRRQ

[17] = molecular target: T17, PLEC1 peptide KRERKTSSKSSVRKRR (SEQ ID NO:81) (not fully specified)
T17 chain: KRERKTSSKSSVRKRR

[18] = molecular target: T18, PRKCA peptide RFARKGSLRQKNV (SEQ ID NO:85) (not fully specified)
T18 chain: RFARKGSLRQKNV

[19] = molecular target: T19, PSCD2 peptide AARKKRISVKKKQEQ (SEQ ID NO:93) (not fully specified)
T19 chain: AARKKRISVKKKQEQ

[20] = molecular target: T20, PSCDBP peptide LSSMFGTLPRKSRKGSVRKQ (SEQ ID NO:144) (not fully specified)
T20 chain: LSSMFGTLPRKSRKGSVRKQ

[21] = molecular target: T21, SYTL4 peptide RQGKRKTSIKRDTVNPL (SEQ ID NO:87) (not fully specified)
T21 chain: RQGKRKTSIKRDTVNPL

[22] = molecular target: T22, cyclophilin G peptide TEEKSKKRKKKHRKNSRKHK (SEQ ID NO:165) (not fully specified)
T22 chain: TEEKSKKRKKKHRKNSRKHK

[23] = molecular target: T23, cytohesin-2 peptide VDPFYEMLAARKKRISVKKK (SEQ ID NO:150) (not fully specified)
T23 chain: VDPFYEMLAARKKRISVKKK

[24] = molecular target: T24, dag kinase iota peptide NRKKKRTSFKRKA (SEQ ID NO:115) (not fully specified)
T24 chain: NRKKKRTSFKRKA

[25] = molecular target: T25, gravin peptide KKFFTQGWAGWRKKTSFRKP (SEQ ID NO:154) (not fully specified)
T25 chain: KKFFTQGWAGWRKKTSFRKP

[26] = molecular target: T26, phospholemman peptide EEGTFRSSIRRLSTRRR (SEQ ID NO:116) (not fully specified)
T26 chain: EEGTFRSSIRRLSTRRR

[27] = molecular target: T27, pleckstrin 1 peptide KAIKAIEGGQKFARKSTRRS (SEQ ID NO:126) (not fully specified)
T27 chain: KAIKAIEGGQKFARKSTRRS

[28] = molecular target: T28, ribosomal protein S6 peptide AKRRRLSSLRASTSK (SEQ ID NO:120) (not fully specified)
T28 chain: AKRRRLSSLRASTSK

[29] = molecular target: T29, titin peptide PFEVVWYKDKRQLRSSKKYK (SEQ ID NO:160) (not fully specified)
T29 chain: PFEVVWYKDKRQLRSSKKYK

B1: PKC-zeta (protein)
chain: MPSRTGPKMEGSGGRVRLKAHYGGDIFITSVDAATTFEELCEEVRDMCRLHQQHPLTLKWVDSEGDPCTVSSQMELEEAFRLARQCRDEGLIIHVFPSTPEQPGLPCPGEDKSIYRRGARRWRKLYRANGHLFQAKRFNRRAYCGQCSERIWGLARQGYRCINCKLLVHKRCHGLVPLTCRKHMDSVMPSQEPPVDDKNEDADLPSEETDGIAYISSSRKHDSIKDDSEDLKPVIDGMDGIKISQGLGLQDFDLIRVIGRGSYAKVLLVRLKKNDQIYAMKVVKKELVHDDEDIDWVQTEKHVFEQASSNPFLVGLHSCFQTTSRLFLVIEYVNGGDLMFHMQRQRKLPEEHARFYAAEICIALNFLHERGIIYRDLKLDNVLLDADGHIKLTDYGMCKEGLGPGDTTSTFCGTPNYIAPEILRGEEYGFSVDWWALGVLMFEMMAGRSPFDIITDNPDMNTEDYLFQVILEKPIRIPRFLSVKASHVLKGFLNKDPKERLGCRPQTGFSDIKSHAFFRSIDWDLLEKKQALPPFQPQITDDYGLDNFDTQFTSEPVQLTPDDEDAIKRIDQSEFEGFEYINPLLLSTEESV
in vitro phosphorylation (% of best substrate) [1]: 5 | in vitro phosphorylation (% of best substrate) [2]: 4 | in vitro phosphorylation (% of best substrate) [3]: 15 | in vitro phosphorylation (% of best substrate) [4]: 18 | in vitro phosphorylation, 1 uM peptide (% of best substrate) [5]: 25 | in vitro phosphorylation, 10 uM peptide (% of best substrate) [5]: 61 | in vitro phosphorylation, 1 uM peptide (% of best substrate) [6]: 60 | in vitro phosphorylation, 10 uM peptide (% of best substrate) [6]: 56 | in vitro phosphorylation (% of best substrate) [7]: 1 | in vitro phosphorylation (% of best substrate) [8]: 4 | in vitro phosphorylation (% of best substrate) [9]: 8 | in vitro phosphorylation (% of best substrate) [10]: 16 | in vitro phosphorylation, 1 uM peptide (% of best substrate) [11]: 3 | in vitro phosphorylation, 10 uM peptide (% of best substrate) [11]: 6 | in vitro phosphorylation (% of best substrate) [12]: 41 | in vitro phosphorylation, 1 uM peptide (% of best substrate) [13]: 7 | in vitro phosphorylation, 10 uM peptide (% of best substrate) [13]: 4 | in vitro phosphorylation, 1 uM peptide (% of best substrate) [14]: 7 | in vitro phosphorylation, 10 uM peptide (% of best substrate) [14]: 26 | in vitro phosphorylation, 1 uM peptide (% of best substrate) [15]: 7 | in vitro phosphorylation, 10 uM peptide (% of best substrate) [15]: 6 | in vitro phosphorylation, 1 uM peptide (% of best substrate) [16]: 15 | in vitro phosphorylation, 10 uM peptide (% of best substrate) [16]: 9 | in vitro phosphorylation (% of best substrate) [17]: 10 | in vitro phosphorylation (% of best substrate) [18]: 56 | in vitro phosphorylation (% of best substrate) [19]: 1 | in vitro phosphorylation, 1 uM peptide (% of best substrate) [20]: 16 | in vitro phosphorylation, 10 uM peptide (% of best substrate) [20]: 54 | in vitro phosphorylation (% of best substrate) [21]: 3 | in vitro phosphorylation, 1 uM peptide (% of best substrate) [22]: 1 | in vitro phosphorylation, 10 uM peptide (% of best substrate) [22]: 2 | in vitro phosphorylation, 1 uM peptide (% of best substrate) [23]: 3 | in vitro phosphorylation, 10 uM peptide (% of best substrate) [23]: 6 | in vitro phosphorylation, 1 uM peptide (% of best substrate) [24]: 11 | in vitro phosphorylation, 10 uM peptide (% of best substrate) [24]: 10 | in vitro phosphorylation, 1 uM peptide (% of best substrate) [25]: 27 | in vitro phosphorylation, 10 uM peptide (% of best substrate) [25]: 23 | in vitro phosphorylation, 1 uM peptide (% of best substrate) [26]: 100 | in vitro phosphorylation, 10 uM peptide (% of best substrate) [26]: 100 | in vitro phosphorylation, 1 uM peptide (% of best substrate) [27]: 46 | in vitro phosphorylation, 10 uM peptide (% of best substrate) [27]: 56 | in vitro phosphorylation, 1 uM peptide (% of best substrate) [28]: 43 | in vitro phosphorylation, 10 uM peptide (% of best substrate) [28]: 34 | in vitro phosphorylation, 1 uM peptide (% of best substrate) [29]: 15 | in vitro phosphorylation, 10 uM peptide (% of best substrate) [29]: 57

B2: PKC-epsilon (protein)
chain: MVVFNGLLKIKICEAVSLKPTAWSLRHAVGPRPQTFLLDPYIALNVDDSRIGQTATKQKTNSPAWHDEFVTDVCNGRKIELAVFHDAPIGYDDFVANCTIQFEELLQNGSRHFEDWIDLEPEGRVYVIIDLSGSSGEAPKDNEERVFRERMRPRKRQGAVRRRVHQVNGHKFMATYLRQPTYCSHCRDFIWGVIGKQGYQCQVCTCVVHKRCHELIITKCAGLKKQETPDQVGSQRFSVNMPHKFGIHNYKVPTFCDHCGSLLWGLLRQGLQCKVCKMNVHRRCETNVAPNCGVDARGIAKVLADLGVTPDKITNSGQRRKKLIAGAESPQPASGSSPSEEDRSKSAPTSPCDQEIKELENNIRKALSFDNRGEEHRAASSPDGQLMSPGENGEVRQGQAKRLGLDEFNFIKVLGKGSFGKVMLAELKGKDEVYAVKVLKKDVILQDDDVDCTMTEKRILALARKHPYLTQLYCCFQTKDRLFFVMEYVNGGDLMFQIQRSRKFDEPRSRFYAAEVTSALMFLHQHGVIYRDLKLDNILLDAEGHCKLADFGMCKEGILNGVTTTTFCGTPDYIAPEILQELEYGPSVDWWALGVLMYEMMAGQPPFEADNEDDLFESILHDDVLYPVWLSKEAVSILKAFMTKNPHKRLGCVASQNGEDAIKQHPFFKEIDWVLLEQKKIKPPFKPRIKTKRDVNNFDQDFTREEPVLTLVDEAIVKQINQEEFKGFSYFGEDLMP
in vitro phosphorylation (% of best substrate) [1]: 31 | in vitro phosphorylation (% of best substrate) [2]: 34 | in vitro phosphorylation (% of best substrate) [3]: 31 | in vitro phosphorylation (% of best substrate) [4]: 92 | in vitro phosphorylation, 1 uM peptide (% of best substrate) [5]: 26 | in vitro phosphorylation, 1 uM peptide (% of best substrate) [6]: 49 | in vitro phosphorylation (% of best substrate) [7]: 8 | in vitro phosphorylation (% of best substrate) [8]: 44 | in vitro phosphorylation (% of best substrate) [9]: 13 | in vitro phosphorylation (% of best substrate) [10]: 71 | in vitro phosphorylation, 1 uM peptide (% of best substrate) [11]: 12 | in vitro phosphorylation (% of best substrate) [12]: 100 | in vitro phosphorylation, 1 uM peptide (% of best substrate) [13]: 19 | in vitro phosphorylation, 1 uM peptide (% of best substrate) [14]: 14 | in vitro phosphorylation, 1 uM peptide (% of best substrate) [15]: 43 | in vitro phosphorylation, 1 uM peptide (% of best substrate) [16]: 21 | in vitro phosphorylation (% of best substrate) [17]: 59 | in vitro phosphorylation (% of best substrate) [18]: 86 | in vitro phosphorylation (% of best substrate) [19]: 40 | in vitro phosphorylation, 1 uM peptide (% of best substrate) [20]: 24 | in vitro phosphorylation (% of best substrate) [21]: 31 | in vitro phosphorylation, 1 uM peptide (% of best substrate) [22]: 12 | in vitro phosphorylation, 1 uM peptide (% of best substrate) [23]: 20 | in vitro phosphorylation, 1 uM peptide (% of best substrate) [24]: 91 | in vitro phosphorylation, 1 uM peptide (% of best substrate) [25]: 29 | in vitro phosphorylation, 1 uM peptide (% of best substrate) [26]: 92 | in vitro phosphorylation, 1 uM peptide (% of best substrate) [27]: 69 | in vitro phosphorylation, 1 uM peptide (% of best substrate) [28]: 56 | in vitro phosphorylation, 1 uM peptide (% of best substrate) [29]: 13
